Laboratory results taken from PMC4614378, “A cancer-associated mutation inactivates a region of the high-mobility group protein HMG20b essential for cytokinesis” (Cell Cycle, 2014).
No end group written: not given here.

How the values were obtained:
Experiment in all cases: pull-down; 1 nmol biotinylated BRC5 peptide on Dynabeads M-280 Streptavidin, 100 pmol purified HMG20b fragment; 50mM Tris-HCl pH 7.4, 150mM NaCl, 1% NP-40, 5mM EDTA, 10mM NaF, 0.1% BSA; 30 minutes at room temperature; Coomassie staining
Conditions in all cases: both partners purified
[1] = target: T1, full-length HMG20b with C-terminal 6xHis tag (human, UniProt Q9P0W2 1-317)
T1 construct: cloned in pET21a; also called His-HMG20b; source: E. coli BL21 (DE3), purified (Ni-NTA agarose)
T1 sequence (looked up): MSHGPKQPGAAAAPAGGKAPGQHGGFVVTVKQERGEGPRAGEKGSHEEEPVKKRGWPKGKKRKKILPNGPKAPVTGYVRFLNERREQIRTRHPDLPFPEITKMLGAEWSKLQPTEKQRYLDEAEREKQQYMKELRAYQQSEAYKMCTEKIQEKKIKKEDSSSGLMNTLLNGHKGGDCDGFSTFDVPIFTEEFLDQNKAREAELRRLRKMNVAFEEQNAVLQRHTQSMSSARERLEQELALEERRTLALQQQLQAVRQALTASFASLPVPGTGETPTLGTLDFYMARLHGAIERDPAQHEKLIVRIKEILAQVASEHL

[2] = target: T2, HMG20b fragment aa113-317 with C-terminal 6xHis tag (human, UniProt Q9P0W2 113-317)
T2 construct: cloned in pET21a; source: E. coli BL21 (DE3), purified (Ni-NTA agarose)
T2 sequence (looked up): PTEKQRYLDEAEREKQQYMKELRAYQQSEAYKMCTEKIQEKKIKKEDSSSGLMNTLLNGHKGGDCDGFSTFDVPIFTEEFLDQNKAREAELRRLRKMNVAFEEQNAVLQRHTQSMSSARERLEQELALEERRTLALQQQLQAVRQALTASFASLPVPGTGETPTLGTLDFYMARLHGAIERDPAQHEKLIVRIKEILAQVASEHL

[3] = target: T3, HMG20b fragment aa173-317 with C-terminal 6xHis tag (human, UniProt Q9P0W2 173-317)
T3 construct: cloned in pET21a; also called C-terminal fragment; source: E. coli BL21 (DE3), purified (Ni-NTA agarose)
T3 sequence (looked up): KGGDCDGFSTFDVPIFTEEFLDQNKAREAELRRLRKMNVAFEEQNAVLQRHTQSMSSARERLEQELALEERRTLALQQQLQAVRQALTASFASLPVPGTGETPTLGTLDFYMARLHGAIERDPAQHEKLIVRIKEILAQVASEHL

[4] = target: T4, HMG20b fragment aa173-276 with C-terminal 6xHis tag (human, UniProt Q9P0W2 173-276)
T4 construct: cloned in pET21a; also called C-terminal Δ1; source: E. coli BL21 (DE3), purified (Ni-NTA agarose)
T4 sequence (looked up): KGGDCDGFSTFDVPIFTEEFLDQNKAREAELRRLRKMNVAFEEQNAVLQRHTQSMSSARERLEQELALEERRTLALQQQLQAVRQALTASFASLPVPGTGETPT

binding result [1]: binds
binding result [2]: binds
binding result [3]: binds
binding result [4]: binds
B1: Biotinylated BRC5 peptide (BRCA2 amino acid residues 1661-1695) (peptide, UniProt P51587 1661-1695, looked up)
peptide: YSVIENSALAFYTSCSRKTSVSQTSLLEAKKWLRE
modifications: also: biotinylated (position not given here)
notes: BRCA2, human, BRC5 repeat motif, residues 1661-1695; also called Biotin-BRC5 peptide; BRC5 repeat; source: synthetic peptide (Cambridge Research Biochemicals)
